Experimental data published in patent US20200270339A1 (CEPHALON, published 2020).
“And” between values parts separate entries of the source, which are not always exact repeats. Equal entries are not always repeated. Where two headings read alike, the source gives them in different places. Each block holds one binder with its values, some of them ahead of it.

Legend:
IL-2 = IL-2 (UniProt P60568 21-153); test: SPR, antibody captured on Protein A chip
IL-9 = IL-9 (UniProt P15248 19-144); test: SPR, antibody captured on Protein A chip
[1] = molecular target: T1, uncomplexed IL-15 Receptor α (human); test: SPR, antibody captured on Protein A chip
T1 construct: also called IL-15Rα; IL15Rα
T1 chain: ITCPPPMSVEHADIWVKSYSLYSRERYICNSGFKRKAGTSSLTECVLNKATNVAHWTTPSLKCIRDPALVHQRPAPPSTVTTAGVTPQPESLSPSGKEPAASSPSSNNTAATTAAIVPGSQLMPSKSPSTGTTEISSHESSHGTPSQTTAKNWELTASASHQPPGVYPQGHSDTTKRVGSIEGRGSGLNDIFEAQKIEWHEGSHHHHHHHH

IL-7 = molecular target: T2, IL-7 (UniProt P13232 26-177); test: SPR, antibody captured on Protein A chip
T2 sequence (looked up): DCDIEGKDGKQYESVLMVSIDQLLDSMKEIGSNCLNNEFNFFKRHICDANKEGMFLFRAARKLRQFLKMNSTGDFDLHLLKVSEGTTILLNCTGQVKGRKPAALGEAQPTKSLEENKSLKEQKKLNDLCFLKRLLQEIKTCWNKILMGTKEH

IL-4 = molecular target: T3, IL-4 (UniProt P05112 25-153); test: SPR, antibody captured on Protein A chip
T3 sequence (looked up): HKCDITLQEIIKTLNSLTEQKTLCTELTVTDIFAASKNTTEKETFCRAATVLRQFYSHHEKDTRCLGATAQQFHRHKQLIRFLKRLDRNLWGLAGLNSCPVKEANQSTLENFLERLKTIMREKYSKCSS

IL-21 = IL-21 (UniProt Q9HBE4 30-162, limits assumed); test: SPR, antibody captured on Protein A chip
[2] = molecular target: T4, human IL-15 complexed with the IL-15 Receptor-alpha (human, UniProt P40933 49-162); test: SPR
T4 construct: Co-expressed in HEK293F from plasmids in a 1:1 ratio; also called IL-15/IL-15Rα complex
Target sequence in this assay (P40933 49-162 limits assumed, one chain of several): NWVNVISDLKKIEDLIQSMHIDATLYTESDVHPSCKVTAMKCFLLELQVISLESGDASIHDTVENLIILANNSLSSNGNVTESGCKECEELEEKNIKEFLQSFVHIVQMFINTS

[3] = molecular target: T4, human IL-15 complexed with the IL-15 …; test: cell-based or functional assay
Target sequence in this assay (P40933 49-162 limits assumed, one chain of several): as above

[4] = molecular target: T4, human IL-15 complexed with the IL-15 …; test: cell-based or functional assay; remark: listed apart in the source
Target sequence in this assay (P40933 49-162 limits assumed, one chain of several): as above

[5] = molecular target: T4, human IL-15 complexed with the IL-15 …; test: cell-based or functional assay; remark: listed apart in the source
Target sequence in this assay (P40933 49-162 limits assumed, chain 1 of 2, one chain of several): as the sequence (P40933 49-162 limits assumed, one chain of several) above

[6] = molecular target: T4, human IL-15 complexed with the IL-15 …; test: cell-based or functional assay; remark: listed apart in the source
Target sequence in this assay (P40933 49-162 limits assumed, one chain of several): as above

[7] = molecular target: T4, human IL-15 complexed with the IL-15 …; test: SPR; remark: listed apart in the source
Target sequence in this assay (P40933 49-162 limits assumed, one chain of several): as above

[8] = molecular target: T4, human IL-15 complexed with the IL-15 …; test: SPR; remark: listed apart in the source
Target sequence in this assay (P40933 49-162 limits assumed, one chain of several): as above

[9] = molecular target: T4, human IL-15 complexed with the IL-15 …; test: SPR; remark: listed apart in the source
[10] = molecular target: T4, human IL-15 complexed with the IL-15 …; test: SPR; remark: listed apart in the source
[11] = molecular target: T4, human IL-15 complexed with the IL-15 …; test: SPR; remark: listed apart in the source

IL-2, sequence (P60568 21-153 limits assumed): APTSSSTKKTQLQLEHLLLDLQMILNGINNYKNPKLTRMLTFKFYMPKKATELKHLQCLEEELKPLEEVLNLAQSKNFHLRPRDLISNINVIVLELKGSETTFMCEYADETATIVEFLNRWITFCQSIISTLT
IL-21, sequence (Q9HBE4 30-162 limits assumed): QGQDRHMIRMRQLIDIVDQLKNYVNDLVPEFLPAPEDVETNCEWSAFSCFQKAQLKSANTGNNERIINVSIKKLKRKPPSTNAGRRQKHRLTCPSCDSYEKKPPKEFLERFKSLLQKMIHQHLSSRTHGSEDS
IL-9, sequence (P15248 19-144 limits assumed): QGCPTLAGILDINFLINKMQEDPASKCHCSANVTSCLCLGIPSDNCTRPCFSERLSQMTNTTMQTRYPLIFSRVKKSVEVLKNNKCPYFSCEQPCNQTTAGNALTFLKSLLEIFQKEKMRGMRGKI

binding result (IL-2): no binding (tested: 10 µg/mL) | binding result (IL-9): no binding (tested: 10 µg/mL) | binding result [1]: no binding (tested: 10 µg/mL) | binding result (IL-7): no binding (tested: 10 µg/mL) | binding result (IL-4): no binding (tested: 10 µg/mL) | binding result (IL-21): no binding (tested: 10 µg/mL) | Kd [2]: 0.154 nM and 0.157 nM | koff [2]: 3.92e-05 s⁻¹ and 3.89e-05 s⁻¹ | kon [2]: 249000 M⁻¹ s⁻¹ and 254000 M⁻¹ s⁻¹ | Max IC50 (pM), NK-92 proliferation assay [3]: 16.6 pM | Mean IC50 (pM), NK-92 proliferation assay [3]: 13.3 pM | Min IC50 (pM), NK-92 proliferation assay [3]: 10.6 pM
B1: Antibody 70b (antibody, human IgG1, lambda)
heavy: QVQLQESGPGLVKPSGTLSLTCAVSGGSISSSNWWSWVRQPPGKGLEWIGEIYHYGYTNYNPSLKSRVTISVDKSKNQFSLKLSSVTAADTAVYYCAREGIGWPSFDYWGQGTLVTVSSASTKGPSVFPLAPSSKSTSGGTAALGCLVKDYFPEPVTVSWNSGALTSGVHTFPAVLQSSGLYSLSSVVTVPSSSLGTQTYICNVNHKPSNTKVDKKVEPKSCDKTHTCPPCPAPELLGGPSVFLFPPKPKDTLYITREPEVTCVVVDVSHEDPEVKFNWYVDGVEVHNAKTKPREEQYNSTYRVVSVLTVLHQDWLNGKEYKCKVSNKALPAPIEKTISKAKGQPREPQVYTLPPSRDELTKNQVSLTCLVKGFYPSDIAVEWESNGQPENNYKTTPPVLDSDGSFFLYSKLTVDKSRWQQGNVFSCSVMHEALHNHYTQKSLSLSPG
light: SSELTQDPAASVALGQTVRITCQGDTLRSYYASWYQQKPGQAPILVIYGKNNRPSGIPDRFSGSSSGNTASLTITGAQAEDEADYYCNSRDLSGKNLVFGGGTKLTVLGQPKAAPSVTLFPPSSEELQANKATLVCLISDFYPGAVTVAWKADSSPVKAGVETTTPSKQSNNKYAASSYLSLTPEQWKSHRSYSCQVTHEGSTVEKTVAPTECS

binding result (IL-2): no binding (tested: 10 µg/mL) | binding result (IL-9): no binding (tested: 10 µg/mL) | binding result [1]: no binding (tested: 10 µg/mL) | binding result (IL-7): no binding (tested: 10 µg/mL) | binding result (IL-4): no binding (tested: 10 µg/mL) | binding result (IL-21): no binding (tested: 10 µg/mL) | Kd [2]: 0.174 nM and 0.193 nM | koff [2]: 4.31e-05 s⁻¹ and 4.58e-05 s⁻¹ | kon [2]: 237000 M⁻¹ s⁻¹ and 247000 M⁻¹ s⁻¹ | Max IC50 (pM), NK-92 proliferation assay [3]: 20.9 pM | Mean IC50 (pM), NK-92 proliferation assay [3]: 15.7 pM | Min IC50 (pM), NK-92 proliferation assay [3]: 11.7 pM
B2: Antibody 70e (antibody, human IgG4 S228P, lambda)
heavy: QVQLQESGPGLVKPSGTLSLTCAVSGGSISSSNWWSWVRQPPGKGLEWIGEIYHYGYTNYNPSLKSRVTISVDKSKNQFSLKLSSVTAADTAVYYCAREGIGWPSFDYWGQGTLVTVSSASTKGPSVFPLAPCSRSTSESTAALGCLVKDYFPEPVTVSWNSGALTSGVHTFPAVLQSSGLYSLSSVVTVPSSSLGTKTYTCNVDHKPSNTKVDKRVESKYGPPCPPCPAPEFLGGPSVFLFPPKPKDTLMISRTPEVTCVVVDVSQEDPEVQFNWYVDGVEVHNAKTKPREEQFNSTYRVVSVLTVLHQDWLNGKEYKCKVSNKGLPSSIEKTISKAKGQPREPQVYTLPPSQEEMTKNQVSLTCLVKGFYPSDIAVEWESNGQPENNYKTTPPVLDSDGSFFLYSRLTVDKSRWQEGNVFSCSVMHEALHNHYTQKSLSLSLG
light: SSELTQDPAASVALGQTVRITCQGDTLRSYYASWYQQKPGQAPILVIYGKNNRPSGIPDRFSGSSSGNTASLTITGAQAEDEADYYCNSRDLSGKNLVFGGGTKLTVLGQPKAAPSVTLFPPSSEELQANKATLVCLISDFYPGAVTVAWKADSSPVKAGVETTTPSKQSNNKYAASSYLSLTPEQWKSHRSYSCQVTHEGSTVEKTVAPTECS

Kd [10]: 2.15 nM
B11: VL_D092S (antibody, V domains shown)
VH: QVQLQESGPGLVKPSGTLSLTCAVSGGSISSSNWWSWVRQPPGKGLEWIGEIYHSGNTNYNPSLKSRVTISVDKSKNQFSLKLISVTAADTAVYYCAREGIGWPSFDYWGQGTLVTVSS
VL: SSELTQDPAASVALGQTVRITCQGDTLRNYYASWYQQKPGQAPILVIYGKNNRPSGIPDRFSGSSSGNTASLTITGAQAEDEADYYCNSRSSSGKNLVFGGGTKLTVL
notes: Antibody 4 with one substitution; also called ANTIBODY 16

Kd [11]: 2.41 nM
B12: VL_N030S (antibody, V domains shown)
VH: QVQLQESGPGLVKPSGTLSLTCAVSGGSISSSNWWSWVRQPPGKGLEWIGEIYHSGNTNYNPSLKSRVTISVDKSKNQFSLKLISVTAADTAVYYCAREGIGWPSFDYWGQGTLVTVSS
VL: SSELTQDPAASVALGQTVRITCQGDTLRSYYASWYQQKPGQAPILVIYGKNNRPSGIPDRFSGSSSGNTASLTITGAQAEDEADYYCNSRDSSGKNLVFGGGTKLTVL
notes: Antibody 4 with one substitution; also called ANTIBODY 51

Second part, the binder before the results:

B3: Antibody 11 (antibody, V domains shown)
VH: QVQLQESGPGLVKPSGTLSLTCAVSGGSISSSNWWSWVRQPPGKGLEWIGEIYHYGYTNYNPSLKSRVTISVDKSKNQFSLKLISVTAADTAVYYCAREGIGWPSFDYWGQGTLVTVSS
VL: SSELTQDPAASVALGQTVRITCQGDTLRNYYASWYQQKPGQAPILVIYGKNNRPSGIPDRFSGSSSGNTASLTITGAQAEDEADYYCNSRDSSGKNLVFGGGTKLTVLG
NK-92 cell proliferation assay, potency (IC50) [4]: 7.4 pM | IC 50 (NK-92) in pM [5]: 6.3 pM | fold improvement of IC50 in the NK-92 cell proliferation assay compared to Antibody 4 [6]: ≥ 10 fold

B4: VL_K051A (antibody, V domains shown)
VH: QVQLQESGPGLVKPSGTLSLTCAVSGGSISSSNWWSWVRQPPGKGLEWIGEIYHSGNTNYNPSLKSRVTISVDKSKNQFSLKLISVTAADTAVYYCAREGIGWPSFDYWGQGTLVTVSS
VL: SSELTQDPAASVALGQTVRITCQGDTLRNYYASWYQQKPGQAPILVIYGANNRPSGIPDRFSGSSSGNTASLTITGAQAEDEADYYCNSRDSSGKNLVFGGGTKLTVL
notes: Antibody 4 with one substitution; also called ANTIBODY 30
Kd [7]: 0.942 nM

B5: VH_N058Q (antibody, V domains shown)
VH: QVQLQESGPGLVKPSGTLSLTCAVSGGSISSSNWWSWVRQPPGKGLEWIGEIYHSGNTQYNPSLKSRVTISVDKSKNQFSLKLISVTAADTAVYYCAREGIGWPSFDYWGQGTLVTVSS
VL: SSELTQDPAASVALGQTVRITCQGDTLRNYYASWYQQKPGQAPILVIYGKNNRPSGIPDRFSGSSSGNTASLTITGAQAEDEADYYCNSRDSSGKNLVFGGGTKLTVL
Kd [8]: 0.765 nM

B6: VH_T057D (antibody, V domains shown)
VH: QVQLQESGPGLVKPSGTLSLTCAVSGGSISSSNWWSWVRQPPGKGLEWIGEIYHSGNDNYNPSLKSRVTISVDKSKNQFSLKLISVTAADTAVYYCAREGIGWPSFDYWGQGTLVTVSS
VL: SSELTQDPAASVALGQTVRITCQGDTLRNYYASWYQQKPGQAPILVIYGKNNRPSGIPDRFSGSSSGNTASLTITGAQAEDEADYYCNSRDSSGKNLVFGGGTKLTVL
notes: Antibody 4 with one substitution; also called ANTIBODY 25
Kd [8]: 0.64 nM

B7: VL_R054Q (antibody, V domains shown)
VH: QVQLQESGPGLVKPSGTLSLTCAVSGGSISSSNWWSWVRQPPGKGLEWIGEIYHSGNTNYNPSLKSRVTISVDKSKNQFSLKLISVTAADTAVYYCAREGIGWPSFDYWGQGTLVTVSS
VL: SSELTQDPAASVALGQTVRITCQGDTLRNYYASWYQQKPGQAPILVIYGKNNQPSGIPDRFSGSSSGNTASLTITGAQAEDEADYYCNSRDSSGKNLVFGGGTKLTVL
notes: Antibody 4 with one substitution; also called ANTIBODY 34
Kd [9]: 0.892 nM

B8: VL_R054L (antibody, V domains shown)
VH: QVQLQESGPGLVKPSGTLSLTCAVSGGSISSSNWWSWVRQPPGKGLEWIGEIYHSGNTNYNPSLKSRVTISVDKSKNQFSLKLISVTAADTAVYYCAREGIGWPSFDYWGQGTLVTVSS
VL: SSELTQDPAASVALGQTVRITCQGDTLRNYYASWYQQKPGQAPILVIYGKNNLPSGIPDRFSGSSSGNTASLTITGAQAEDEADYYCNSRDSSGKNLVFGGGTKLTVL
notes: Antibody 4 with one substitution; also called ANTIBODY 33
Kd [9]: 0.845 nM

B9: VL_K051L (antibody, V domains shown)
VH: QVQLQESGPGLVKPSGTLSLTCAVSGGSISSSNWWSWVRQPPGKGLEWIGEIYHSGNTNYNPSLKSRVTISVDKSKNQFSLKLISVTAADTAVYYCAREGIGWPSFDYWGQGTLVTVSS
VL: SSELTQDPAASVALGQTVRITCQGDTLRNYYASWYQQKPGQAPILVIYGLNNRPSGIPDRFSGSSSGNTASLTITGAQAEDEADYYCNSRDSSGKNLVFGGGTKLTVL
notes: Antibody 4 with one substitution; also called ANTIBODY 32
Kd [7]: 0.865 nM

B10: VL_R054Y (antibody, V domains shown)
VH: QVQLQESGPGLVKPSGTLSLTCAVSGGSISSSNWWSWVRQPPGKGLEWIGEIYHSGNTNYNPSLKSRVTISVDKSKNQFSLKLISVTAADTAVYYCAREGIGWPSFDYWGQGTLVTVSS
VL: SSELTQDPAASVALGQTVRITCQGDTLRNYYASWYQQKPGQAPILVIYGKNNYPSGIPDRFSGSSSGNTASLTITGAQAEDEADYYCNSRDSSGKNLVFGGGTKLTVL
notes: Antibody 4 with one substitution; also called ANTIBODY 35
Kd [9]: 0.784 nM
